The numbers were not newly measured in PMC12115143, which cites them from elsewhere.

Data set [1] addresses AHP2 (Arabidopsis thaliana) (UniProt Q9ZNV8).
For data set [2], the target named is AHP1 (Arabidopsis thaliana) (UniProt Q9ZNV9).
UniProt Q9ZNV9, sequence (Q9ZNV9 whole entry): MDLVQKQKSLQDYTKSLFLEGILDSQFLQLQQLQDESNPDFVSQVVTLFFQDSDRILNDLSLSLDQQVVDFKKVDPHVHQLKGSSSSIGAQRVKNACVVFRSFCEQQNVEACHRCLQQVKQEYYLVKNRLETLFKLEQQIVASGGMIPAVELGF

UniProt Q9ZNV8, sequence (Q9ZNV8 whole entry): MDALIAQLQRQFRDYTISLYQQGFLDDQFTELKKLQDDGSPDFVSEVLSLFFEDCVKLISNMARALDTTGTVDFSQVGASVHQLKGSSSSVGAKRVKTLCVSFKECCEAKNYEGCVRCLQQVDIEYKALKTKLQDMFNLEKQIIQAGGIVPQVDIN

As usually defined, the Kd is a measure of binding affinity in units of concentration. Consider AHK1 (from UniProt Q9SXL4), for which the Kd in data set [1] was 300 nM.
Turning to ETR1 (from UniProt P49333), the dissociation constant Kd in data set [2] is 1500 nM.
